Measured values: patent publication US20040209326A1

Columns and labels:
[1] = target: fibrinogen binding protein encoded from pSE100 (581 aa part of protein FIG of Staphylococcus epidermidis strain HB) (Staphylococcus epidermidis strain HB) (UniProt O70022); assay: inhibition of pSE100 phage panning on fibrinogen-coated wells by the soluble ligand; phage eluted at pH 1.8
Human fibrinogen (human) [2] = target: Human fibrinogen (human) (UniProt P02671); assay: phage panning on coated protein in microtiter wells; bound phage eluted at pH 1.8
UniProt P02671, sequence (P02671 other isoform, or with tags, fused parts or gaps limits assumed, chain 1 of 3): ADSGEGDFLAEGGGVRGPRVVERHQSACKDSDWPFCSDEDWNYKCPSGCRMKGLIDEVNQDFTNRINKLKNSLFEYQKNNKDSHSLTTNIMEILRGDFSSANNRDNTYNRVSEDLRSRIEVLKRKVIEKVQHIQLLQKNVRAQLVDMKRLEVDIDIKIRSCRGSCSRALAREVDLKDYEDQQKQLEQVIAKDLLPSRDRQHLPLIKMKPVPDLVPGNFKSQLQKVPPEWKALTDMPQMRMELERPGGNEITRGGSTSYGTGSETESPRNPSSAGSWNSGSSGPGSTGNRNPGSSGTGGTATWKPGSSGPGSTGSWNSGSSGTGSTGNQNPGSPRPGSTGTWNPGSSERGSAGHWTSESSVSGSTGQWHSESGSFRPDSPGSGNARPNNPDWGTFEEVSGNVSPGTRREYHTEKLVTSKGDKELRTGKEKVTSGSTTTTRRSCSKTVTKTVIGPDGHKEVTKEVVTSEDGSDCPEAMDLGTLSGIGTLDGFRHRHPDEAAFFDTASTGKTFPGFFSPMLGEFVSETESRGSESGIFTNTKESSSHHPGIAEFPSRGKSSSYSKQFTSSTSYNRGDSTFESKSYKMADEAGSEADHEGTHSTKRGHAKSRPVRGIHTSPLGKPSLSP
UniProt P02671, sequence (P02675 31-491 limits assumed, chain 2 of 3, further chain): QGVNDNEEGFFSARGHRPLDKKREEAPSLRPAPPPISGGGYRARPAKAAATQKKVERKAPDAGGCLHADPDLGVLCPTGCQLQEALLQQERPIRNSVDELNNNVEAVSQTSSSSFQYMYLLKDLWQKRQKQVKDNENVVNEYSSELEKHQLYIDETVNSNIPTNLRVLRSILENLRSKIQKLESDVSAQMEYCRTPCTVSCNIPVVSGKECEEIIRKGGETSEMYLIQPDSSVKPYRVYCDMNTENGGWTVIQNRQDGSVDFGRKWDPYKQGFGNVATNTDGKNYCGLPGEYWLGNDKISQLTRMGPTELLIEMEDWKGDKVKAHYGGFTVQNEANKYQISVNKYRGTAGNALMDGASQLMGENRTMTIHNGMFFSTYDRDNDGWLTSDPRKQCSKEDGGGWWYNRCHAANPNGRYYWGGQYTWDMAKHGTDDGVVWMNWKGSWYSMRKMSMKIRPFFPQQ
UniProt P02671, sequence (P02679 other isoform, or with tags, fused parts or gaps limits assumed, chain 3 of 3, further chain): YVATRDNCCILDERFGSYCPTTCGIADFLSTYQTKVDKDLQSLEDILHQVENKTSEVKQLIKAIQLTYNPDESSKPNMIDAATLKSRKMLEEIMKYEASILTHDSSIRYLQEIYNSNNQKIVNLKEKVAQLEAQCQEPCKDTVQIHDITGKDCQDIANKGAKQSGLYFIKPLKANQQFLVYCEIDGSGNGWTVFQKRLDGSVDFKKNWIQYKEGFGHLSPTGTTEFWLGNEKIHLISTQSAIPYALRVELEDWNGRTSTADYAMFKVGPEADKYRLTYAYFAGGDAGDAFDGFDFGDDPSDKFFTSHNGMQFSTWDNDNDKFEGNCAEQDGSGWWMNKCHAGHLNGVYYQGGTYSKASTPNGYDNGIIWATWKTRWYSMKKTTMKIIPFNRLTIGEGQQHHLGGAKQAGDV

IgA [3] = assay: as above
Fibronectin [4] = assay: as above
[5] = target: Human serum albumin (human) (UniProt P02768); assay: as above
Collagen type I [6] = assay: as above
Vitronectin [7] = assay: as above
Pepsin [8] = assay: as above
Transferrin [9] = assay: as above
[10] = target: Bovine serum albumin (fraction V, ria grade) (bovine) (UniProt P02769); assay: as above
UniProt P02769, sequence (P02769 25-607 limits assumed): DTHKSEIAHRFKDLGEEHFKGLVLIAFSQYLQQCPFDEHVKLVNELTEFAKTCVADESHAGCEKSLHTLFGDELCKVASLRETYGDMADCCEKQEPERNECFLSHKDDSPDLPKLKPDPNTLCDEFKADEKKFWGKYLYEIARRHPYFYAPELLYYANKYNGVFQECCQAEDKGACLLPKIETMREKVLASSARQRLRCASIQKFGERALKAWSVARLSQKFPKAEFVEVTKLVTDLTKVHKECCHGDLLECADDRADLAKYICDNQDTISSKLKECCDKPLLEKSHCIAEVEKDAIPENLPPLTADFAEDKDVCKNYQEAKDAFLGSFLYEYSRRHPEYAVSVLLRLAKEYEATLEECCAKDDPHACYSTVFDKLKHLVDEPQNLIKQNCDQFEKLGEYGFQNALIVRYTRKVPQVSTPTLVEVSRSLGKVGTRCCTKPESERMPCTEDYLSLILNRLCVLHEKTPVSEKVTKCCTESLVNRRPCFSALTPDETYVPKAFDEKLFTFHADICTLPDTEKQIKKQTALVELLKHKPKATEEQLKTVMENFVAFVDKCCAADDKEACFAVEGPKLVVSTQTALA

Lactoferrin [11] = assay: as above
α2macroglobulin [12] = assay: as above
Elastin [13] = assay: as above
human IgG [14] = assay: as above
Human fibrinogen (human) [15] = target: Human fibrinogen (human) (UniProt P02671); assay: phage panning on coated protein in microtiter wells; last wash
IgA [16] = assay: as above
Fibronectin [17] = assay: as above
[18] = target: Human serum albumin (human) (UniProt P02768); assay: as above
Collagen type I [19] = assay: as above
Vitronectin [20] = assay: as above
Pepsin [21] = assay: as above
Transferrin [22] = assay: as above
[23] = target: Bovine serum albumin (fraction V, ria grade) (bovine) (UniProt P02769); assay: as above
Lactoferrin [24] = assay: as above
α2macroglobulin [25] = assay: as above
Elastin [26] = assay: as above
human IgG [27] = assay: as above

UniProt O70022, sequence (O70022 75-656): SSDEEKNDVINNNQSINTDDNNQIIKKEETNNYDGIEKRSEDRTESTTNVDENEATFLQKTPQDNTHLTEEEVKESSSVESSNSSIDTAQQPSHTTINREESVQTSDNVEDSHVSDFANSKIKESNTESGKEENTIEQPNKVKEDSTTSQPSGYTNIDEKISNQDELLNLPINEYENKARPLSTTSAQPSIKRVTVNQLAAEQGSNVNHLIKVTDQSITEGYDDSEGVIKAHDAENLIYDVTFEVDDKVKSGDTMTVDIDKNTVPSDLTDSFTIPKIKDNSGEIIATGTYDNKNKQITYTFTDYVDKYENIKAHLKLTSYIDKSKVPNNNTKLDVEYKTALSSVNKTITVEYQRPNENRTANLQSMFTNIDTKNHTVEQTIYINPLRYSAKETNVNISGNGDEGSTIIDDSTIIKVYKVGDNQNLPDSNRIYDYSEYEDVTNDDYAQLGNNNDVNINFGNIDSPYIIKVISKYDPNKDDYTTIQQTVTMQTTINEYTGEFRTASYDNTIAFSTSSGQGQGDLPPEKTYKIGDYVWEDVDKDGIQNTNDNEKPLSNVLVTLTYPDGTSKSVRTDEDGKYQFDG

For “Bovine serum albumin (fraction V, ria grade) (from UniProt P02769 25-607)”, the eluted phage titre at 0 µg/ml soluble ligand [1] was 76000 cfu/ml, the eluted phage titre at 0.1 µg/ml soluble ligand [1] was 70000 cfu/ml and the eluted phage titre at 1 µg/ml soluble ligand [1] was 93000 cfu/ml. It also gave an eluted phage titre at 10 µg/ml soluble ligand [1] of 63000 cfu/ml, an eluted phage titre at 100 µg/ml soluble ligand [1] of 64000 cfu/ml and an eluted phage titre at 1000 µg/ml soluble ligand [1] of 69000 cfu/ml.

For “Human fibrinogen (from UniProt P02671 20-644; P02675 31-491; P02679 27-437)”, the eluted phage titre at 0 µg/ml soluble ligand [1] was 76000 cfu/ml, the eluted phage titre at 0.1 µg/ml soluble ligand [1] was 44000 cfu/ml and the eluted phage titre at 1 µg/ml soluble ligand [1] was 36000 cfu/ml. The eluted phage titre at 10 µg/ml soluble ligand [1] was 15000 cfu/ml, the eluted phage titre at 100 µg/ml soluble ligand [1] was 3800 cfu/ml and the eluted phage titre at 1000 µg/ml soluble ligand [1] was 300 cfu/ml.

“fibrinogen binding protein encoded from pSE100 (581 aa part of protein FIG of Staphylococcus epidermidis strain HB) (from UniProt O70022 75-656)” was tested, and the phage titre in Eluate pH 1.8 (Human fibrinogen (human) [2]) was 1.4e+07 cfu/ml, the phage titre in Eluate pH 1.8 (IgA [3]) was 68000 cfu/ml and the phage titre in Eluate pH 1.8 (Fibronectin [4]) was 24000 cfu/ml. The phage titre in Eluate pH 1.8 [5] was 2200 cfu/ml, the phage titre in Eluate pH 1.8 (Collagen type I [6]) was 1200 cfu/ml and the phage titre in Eluate pH 1.8 (Vitronectin [7]) was 2200 cfu/ml. For the same substance, the phage titre in Eluate pH 1.8 (Pepsin [8]) was 37000 cfu/ml, the phage titre in Eluate pH 1.8 (Transferrin [9]) was 2400 cfu/ml and the phage titre in Eluate pH 1.8 [10] was 800 cfu/ml. For the same substance, the phage titre in Eluate pH 1.8 (Lactoferrin [11]) was 8200 cfu/ml, the phage titre in Eluate pH 1.8 (α2macroglobulin [12]) was 2000 cfu/ml and the phage titre in Eluate pH 1.8 (Elastin [13]) was 5200 cfu/ml. The phage titre in Eluate pH 1.8 (human IgG [14]) was 4400 cfu/ml, the phage titre in the last wash (Human fibrinogen (human) [15]) was 11000 cfu/ml and the phage titre in the last wash (IgA [16]) was 600 cfu/ml. It also gave a phage titre in the last wash (Fibronectin [17]) of 600 cfu/ml, a phage titre in the last wash [18] of 800 cfu/ml and a phage titre in the last wash (Collagen type I [19]) of 600 cfu/ml. The phage titre in the last wash (Vitronectin [20]) was less than 100 cfu/ml, the phage titre in the last wash (Pepsin [21]) was 180 cfu/ml and the phage titre in the last wash (Transferrin [22]) was 200 cfu/ml. For the same substance, the phage titre in the last wash [23] was less than 100 cfu/ml, the phage titre in the last wash (Lactoferrin [24]) was 600 cfu/ml and the phage titre in the last wash (α2macroglobulin [25]) was 200 cfu/ml. For the same substance, the phage titre in the last wash (Elastin [26]) was 800 cfu/ml and the phage titre in the last wash (human IgG [27]) was 400 cfu/ml.

Substance human IgG (antibody) has an eluted phage titre at 0 µg/ml soluble ligand [1] of 76000 cfu/ml, an eluted phage titre at 0.1 µg/ml soluble ligand [1] of 62000 cfu/ml and an eluted phage titre at 1 µg/ml soluble ligand [1] of 90000 cfu/ml. For the same substance, the eluted phage titre at 10 µg/ml soluble ligand [1] was 78000 cfu/ml, the eluted phage titre at 100 µg/ml soluble ligand [1] was 73000 cfu/ml and the eluted phage titre at 1000 µg/ml soluble ligand [1] was 76000 cfu/ml.
